± gives the standard deviation of the averaged measurements.
Test system: Saccharomyces cerevisiae
Test: protein stability index of tFT-peptide fusion (C-terminal peptide) (PSI (0-1 scale)); higher = more stable (slower turnover)
Settings: genetic background: wild type; temperature: 30 C
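Also: PSI is a weighted mean of sequencing reads over stability bins, variants kept only with over 10 reads, mCherry proximal and sfGFP distal, peptide attached via GGGS linker.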

NMKPPTNKGSNK and NMLYRKEGWTKE are within error of each other in protein stability index: 0.675 ± 0.054 for the first, 0.655 ± 0.036 for the second.

NMMTSVLEGGVG and NMVIRLIEKRKK are within error of each other in protein stability index: 0.699 ± 0.16 for the first, 0.663 ± 0.021 for the second.

Compared with NNKNNKNKIYKK, NNKRNGRIKRKI is higher in protein stability index: 0.679 ± 0.0091 for the first, 0.738 ± 0.02 for the second.

Compared with NNSCPQGHPDAR, NNSRTNDVRRRK is lower in protein stability index: 0.7574 ± 0.0065 for the first, 0.726 ± 0.018 for the second.

NPCPSVLCSNCD and NPLRTQASTTAQ are within error of each other in protein stability index: 0.67 ± 0.064 for the first, 0.72 ± 0.096 for the second.

NQHKKGQKKKGI and NRGGRKAINENG are within error of each other in protein stability index: 0.684 ± 0.042 for the first, 0.685 ± 0.036 for the second.

NRGKDEIMKRDK and NRKKIKSIDVRK are within error of each other in protein stability index: 0.671 ± 0.066 for the first, 0.67 ± 0.07 for the second.

NRRCAPVHPGPD and NSFTYWYGGCIL are within error of each other in protein stability index: 0.7217 ± 0.0036 for the first, 0.802 ± 0.28 for the second.

First: NSSPVRSSCLSA
Second: NSTERDNGIRKE
The protein stability index of the first is higher: 0.6881 ± 0.0038 for the first, 0.6686 ± 0.0065 for the second.

First: NTKNPRPQDPQQ
Second: NTTFISRRLPPR
The protein stability index of the first is lower: 0.651 ± 0.013 for the first, 0.687 ± 0.0089 for the second.

NVNNNICTYRAI and NVVFGCFFPVLT are within error of each other in protein stability index: 0.6776 ± 0.0046 for the first, 0.684 ± 0.04 for the second.

Going from NYNGVRRYNGFK to PAACPTRTCLYP, the protein stability index rises from 0.574 ± 0.052 to 0.719 ± 0.045.

Going from PALPPPAPLPLS to PALPPPPLLSSS, the protein stability index rises from 0.67261 ± 0.00022 to 0.705 ± 0.012.

First: PALPPPPSPPLL
Second: PALQHTVPPPPQ
The protein stability index of the first is higher: 0.754 ± 0.052 for the first, 0.579 ± 0.012 for the second.

PANGKQNRGKRR and PAPCAPLLTHRP are within error of each other in protein stability index: 0.645 ± 0.078 for the first, 0.6614 ± 0.0025 for the second.

PAPCPSPPAPAV and PAPLFFCAPFFF are within error of each other in protein stability index: 0.708 ± 0.029 for the first, 0.715 ± 0.034 for the second.

First: PAPLSIPSTLTT
Second: PAPPLPLAPPPL
The protein stability index of the first is lower: 0.609 ± 0.053 for the first, 0.771 ± 0.025 for the second.

PAPPSHLLLPLL and PAPPSPPPHSSP are within error of each other in protein stability index: 0.768 ± 0.067 for the first, 0.751 ± 0.063 for the second.

PAPRPAPPSLPP and PAPSPPPPRPLP are within error of each other in protein stability index: 0.709 ± 0.015 for the first, 0.716 ± 0.1 for the second.

First: PARRPPPTPSSS
Second: PASPPLRALSSL
The protein stability index of the first is lower: 0.631 ± 0.064 for the first, 0.81 ± 0.075 for the second.

PASQPPTPPPRS and PASSTLRPPAHP are within error of each other in protein stability index: 0.675 ± 0.11 for the first, 0.723 ± 0.18 for the second.

PAVHLYFIPPTG and PAVSRPPLPSVH are within error of each other in protein stability index: 0.644 ± 0.038 for the first, 0.7 ± 0.089 for the second.

PCAPHPPPWVVL and PCDWEGCVAMNV are within error of each other in protein stability index: 0.6058 ± 0.0056 for the first, 0.649 ± 0.055 for the second.

PCFSCPPLFLRT and PCGTPHVRPLAT are within error of each other in protein stability index: 0.631 ± 0.067 for the first, 0.719 ± 0.025 for the second.

PCLPCVDRGMRG and PCLTCKARSIWL are within error of each other in protein stability index: 0.6663 ± 0.00079 for the first, 0.672 ± 0.033 for the second.

PCPAPPPASSSP and PCPLPVLDASQF are within error of each other in protein stability index: 0.728 ± 0.16 for the first, 0.7158 ± 0.0053 for the second.

PCSRVICASEFT and PDAGTSSLQTLT are within error of each other in protein stability index: 0.701 ± 0.045 for the first, 0.722 ± 0.036 for the second.

PDCPCVAVCSDI and PDCQSIIRLTTG are within error of each other in protein stability index: 0.728 ± 0.032 for the first, 0.752 ± 0.098 for the second.

PDCVRVSGLGLS and PDHPTLPRRNPL are within error of each other in protein stability index: 0.665 ± 0.045 for the first, 0.743 ± 0.039 for the second.

PDPPPTRPFPAP and PDPPTQPTRRSR are within error of each other in protein stability index: 0.672 ± 0.045 for the first, 0.686 ± 0.029 for the second.

First: PDPTLPTPSRPP
Second: PDYPYQDQLARL
The protein stability index of the first is lower: 0.642 ± 0.024 for the first, 0.784 ± 0.058 for the second.

First: PEEPSANWTGFF
Second: PEESSSEGSVKR
The protein stability index of the first is lower: 0.598 ± 0.033 for the first, 0.67927 ± 0.00039 for the second.

First: PEGQRNRDAQSA
Second: PEIKKNRTVSIV
The protein stability index of the first is higher: 0.7125 ± 0.0026 for the first, 0.664 ± 0.011 for the second.

PEMELEKRNQHN and PENKSLITSPRV are within error of each other in protein stability index: 0.716 ± 0.015 for the first, 0.628 ± 0.098 for the second.

PESPGSPEIRHR and PFALPPPPPLVP are within error of each other in protein stability index: 0.75 ± 0.053 for the first, 0.69 ± 0.0078 for the second.

PFCCALPSPPSP and PFCGSPARTTAV are within error of each other in protein stability index: 0.6145 ± 0.0055 for the first, 0.642 ± 0.052 for the second.

PFCKTDHMSMTV and PFFHFLGFSYFC are within error of each other in protein stability index: 0.682 ± 0.039 for the first, 0.684 ± 0.024 for the second.

Compared with PFFLAFPPSPPT, PFFPSQFFLFFS is lower in protein stability index: 0.723 ± 0.029 for the first, 0.6477 ± 0.0048 for the second.

PFFSPLPPSPPP and PFGRETCLTSVP are within error of each other in protein stability index: 0.767 ± 0.11 for the first, 0.648 ± 0.03 for the second.

PFHCLPRPPCYW and PFHPSPLPAPHF are within error of each other in protein stability index: 0.708 ± 0.14 for the first, 0.638 ± 0.036 for the second.

PFLAWTILPLTY gave a protein stability index of 0.701 ± 0.0074.

Source: the supplement of paper PMC10724198
